In patent publication US20170073416A1 (SPRING BIOSCIENCE, published 2017):
No end group written: not given here.

How the values were obtained:
human B7-H3 = biological target: T1, human B7-H3 (human, UniProt Q5ZPR3 29-534); assay: IHC on FFPE samples
T1 construct: whole, on cells; Endogenous protein detected in FFPE cells and tissues by IHC, and as a 110 kDa band in SDS-PAGE-fractionated cell lysates by Western blot; also called B7-H3 polypeptide
T1 sequence (looked up): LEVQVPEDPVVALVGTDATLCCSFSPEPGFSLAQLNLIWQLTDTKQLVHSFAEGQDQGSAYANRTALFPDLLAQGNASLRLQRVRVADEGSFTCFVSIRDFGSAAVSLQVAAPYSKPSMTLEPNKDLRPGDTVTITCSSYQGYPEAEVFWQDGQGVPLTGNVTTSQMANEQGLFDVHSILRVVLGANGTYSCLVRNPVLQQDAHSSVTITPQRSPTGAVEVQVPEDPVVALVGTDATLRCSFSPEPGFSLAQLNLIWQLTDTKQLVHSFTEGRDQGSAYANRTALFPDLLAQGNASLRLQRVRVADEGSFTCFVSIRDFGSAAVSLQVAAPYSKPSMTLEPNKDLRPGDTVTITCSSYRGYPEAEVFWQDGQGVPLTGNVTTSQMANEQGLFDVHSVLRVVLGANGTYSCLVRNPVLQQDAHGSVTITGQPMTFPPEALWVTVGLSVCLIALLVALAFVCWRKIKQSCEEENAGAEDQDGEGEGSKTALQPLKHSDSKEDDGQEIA
Method: Rabbit anti-human B7-H3 monoclonal antibodies SP265 and S10H50L58 were applied onto formalin-fixed paraffin embedded (FFPE) tissue samples to assess the staining patterns of these antibodies. Tissue samples include Hs700t (positive control), kidney (negative control) and renal cell carcinoma (positive control). IHC was performed on BenchMark Ultra (Ventana Medical Systems) using mild CC1 cell conditioning with OptiView detection kit.

[1] = biological target: T2, peptide immunogen (human B7-H3 aa 521-534), KHSDSKEDDGQEIA (human, not fully specified); assay: ELISA, antibody on immobilized peptide immunogen
T2 construct: also called immobilized peptide immunogen
T2 peptide: KHSDSKEDDGQEIA
Method: ELISA studies were performed with the SP265 antibody to evaluate binding to the immobilized peptide immunogen (human B7-H3 aa 521-534).

B1: Rabbit anti-human B7-H3 monoclonal antibody SP265 (antibody, V domains shown)
VH: QSVEESRGGLIKPTDTLTLTCTVSGFSLGSYGVSWVRQAPGNGLEWIGGSGKRGNPYYASWAKSRSTITRNTNLNTVTLKMTSLTAADTATYFCASRAPVVSTSMTFNIWGPGTLVTVSS
VL: AQVPTQTPSPVSAAVGGTVTINCQASQSVYNNKNLSWYQQKPGQPPKLLIYEASTLASGVPSRFSGSGSGTQFALTISGVQCEDAATYYCQGEFTCSGADCGAFGGGTEVVVK
notes: also called SP265 anti-B7-H3 antibody; SP265 B7-H3 antibody
binding result (human B7-H3): binds | EC50 [1]: 0.067 nM
